Assay results taken from IntAct's records for PubMed 11739743.

B1: Cell cycle protein kinase spo4 (Schizosaccharomyces pombe (strain ATCC 38366 / 972)), Q9UQY9 (parent)
chain: MLSMLLPFGNSGVYASDVDREDRPEIAKLVQAFPTIEEDYHVVKLVGAGSFSSVFKAVDRHFDSYDNSYWISSQIEDQMPHDKTKRPKNHFVALKRIYATVLPSRIQTELEMLHELRGSDCVLNMITAVRHQDQVLIVLPFIQHAEFRDFYMKYSLPEIGAYLRDLLKGLAHIDAKGIIHRDIKPGNFAWNPYTQRGVILDFGLAQWQEADAPTENCCVDKLRKLKQEGKYYDYFPFEKTIADPPEGYLLHDPRPTKRADRAGTRGFRAPEVLFRCQNQTSSIDVWSVGVILLCFLTHRYPFFRCEDDIDAIVELAHIFGRNGMSNCALLHGQIWSDNIPTLLDQKHNWLDLIASITKNDENLILETSSDYQVALAIDLLDKLLELHPSKRVKAKTALQHEFFNACGVTRSGFEAENPFRSDFPSTVEQ
partner: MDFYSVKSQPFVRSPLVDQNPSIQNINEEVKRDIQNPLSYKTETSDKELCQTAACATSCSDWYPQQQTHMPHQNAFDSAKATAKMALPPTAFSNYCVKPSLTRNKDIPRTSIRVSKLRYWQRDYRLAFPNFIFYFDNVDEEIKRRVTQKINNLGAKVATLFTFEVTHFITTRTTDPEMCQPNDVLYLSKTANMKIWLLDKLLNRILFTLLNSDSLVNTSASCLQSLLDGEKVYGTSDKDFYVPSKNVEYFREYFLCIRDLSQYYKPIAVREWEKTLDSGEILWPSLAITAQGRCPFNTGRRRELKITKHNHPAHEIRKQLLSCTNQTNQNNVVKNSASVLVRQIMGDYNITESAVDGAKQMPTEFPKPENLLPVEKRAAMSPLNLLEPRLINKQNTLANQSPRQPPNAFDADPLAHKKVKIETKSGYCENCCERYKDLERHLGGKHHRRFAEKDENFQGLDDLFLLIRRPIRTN

Variants of: B1
Settings: with spo6_schpo spo6, Q9Y7J1

Row | effect of a mutation on the interaction | Variant
1 | with no effect | MLSMLLPFGNSGVYASDVDREDRPEIAKLVQAFPTIEEDYHVVKLVGAGSFSSVFKAVDRHFDSYDNSYWISSQIEDQMPHDKTKRPKNHFVALARIYATVLPSRIQTELEMLHELRGSDCVLNMITAVRHQDQVLIVLPFIQHAEFRDFYMKYSLPEIGAYLRDLLKGLAHIDAKGIIHRDIKPGNFAWNPYTQRGVILDFGLAQWQEADAPTENCCVDKLRKLKQEGKYYDYFPFEKTIADPPEGYLLHDPRPTKRADRAGTRGFRAPEVLFRCQNQTSSIDVWSVGVILLCFLTHRYPFFRCEDDIDAIVELAHIFGRNGMSNCALLHGQIWSDNIPTLLDQKHNWLDLIASITKNDENLILETSSDYQVALAIDLLDKLLELHPSKRVKAKTALQHEFFNACGVTRSGFEAENPFRSDFPSTVEQ [K95A]
